In experiment [1] the target is somatostatin receptors on GH4 pituitary cells. The experiment can be described thus: displacement of 125I-somatostatin-14 from GH4 pituitary cells.
The target is the same in experiment [2]. The experiment in a line: cell-based or functional assay.

Ends that are not written are not given here.

As for “somatostatin-14 peptide (from UniProt P61278 103-116)”, the Kd (as a rule, the constant that tells how readily two partners part at equilibrium) in experiment [1] worked out at 5 nM. Further, in experiment [2], the inhibition of TRH-stimulated cAMP in GH4 cells worked out at 10 nM and the inhibition of VIP-stimulated cAMP in GH4 cells came to 50 % at 10^-6 M.
The like results for PCKNFFWKTFSSCK-NH2 (cysteine pairing not given here) [cortistatin-14 peptide] were, in that order, 5 nM, 10 nM and 50 % at 10^-6 M.

The record behind these values is patent publication US20050249734A1.
